{"source": "paper PMC7482062", "key": {"[1]": {"target": "P113 N-terminal fragment D106K E107K mutant, biotinylated bait (Plasmodium falciparum (3D7 strain)) (UniProt Q8ILP3)", "experiment": "SPR; […]; Biacore 8K, 37°C, HBS-EP"}, "[2]": {"target": "P113 (Plasmodium falciparum) (UniProt Q8ILP3)", "conditions": "cited from earlier work"}}}
{"substance": "RH5, purified monomeric protein (from UniProt Q8IFM5 25-526) (ligand)", "values": [{"measurement": "fold reduction in dissociation half-life against wild type", "setting": "[1]", "result": 2, "unit": "fold"}]}
{"substance": "RH5 (from UniProt Q8IFM5)", "values": [{"measurement": "Kd", "setting": "[2]", "result": 300, "unit": "nM"}]}
